Laboratory results reported in patent publication US20110274696A1 (Amgen, published 2011).
Residue numbers refer to the chain shown, from its start. Numbers in names are those of the source. Where “and” joins values, the source holds several entries; their conditions need not be identical. Equal values may be shown once. Where no end group is shown, it is not given here.

Tests used:
human CCR2 [1] = target: T1, human CCR2 (human, UniProt P41597-2 1-360); test: cell-based or functional assay
T1 sequence: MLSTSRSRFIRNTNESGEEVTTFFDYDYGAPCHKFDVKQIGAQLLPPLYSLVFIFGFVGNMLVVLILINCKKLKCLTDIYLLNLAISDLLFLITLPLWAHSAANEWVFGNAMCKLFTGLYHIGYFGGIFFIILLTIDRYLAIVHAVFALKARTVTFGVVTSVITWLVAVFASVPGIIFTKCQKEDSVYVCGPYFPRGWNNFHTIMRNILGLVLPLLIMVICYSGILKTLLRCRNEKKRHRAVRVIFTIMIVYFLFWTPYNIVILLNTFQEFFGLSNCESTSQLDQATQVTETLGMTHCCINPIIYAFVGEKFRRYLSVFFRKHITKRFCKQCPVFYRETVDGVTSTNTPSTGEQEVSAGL

human CCR2 [2] = target: T1, human CCR2; test: cell-based or functional assay; remark: listed apart in the source
[3] = target: T2, biotinylated CCR2 loop 2 peptide (human, biotinylated (position not given)); test: peptide ELISA, biotinylated peptide on NeutrAvidin plate
T2 construct: Synthetic peptide (AnaSpec) captured on a NeutrAvidin plate; also called second extracellular loop peptide
T2 peptide: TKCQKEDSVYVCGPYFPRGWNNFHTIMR
Experimental: (§1) In addition, epitope binding to the first and/or second loop of CCR2 was also assessed using a peptide ELISA. A Reacti-Bind NEUTRAVIDIN™ Coated, High Binding Capacity ELISA plate (Pierce; Rockford, Ill.) was washed 3× with PBS/0.05% Tween20 and then coated with 100 ul/well of 6 ug/ml biotinylated CCR2 loop 2 (SEQ ID NO:129) or loop 3 (SEQ ID NO:130) peptide (AnaSpec; San Jose, Calif.). The plate was incubated for 1 hour and then washed 3×. The CCR2 antagonist antibody 4.40.3 A68G S230P or other primary antibody, diluted in PBS/0.1% BSA/0.05% Tween20, was then added to the plate in serial dilution and incubated for 1 hour, as were other controls. The plate was washed 3× and 100 ul/well HRP-Mouse anti-Human IgG4 secondary antibody (Zymed; So. San Francisco, Calif.) was added to all the wells at 1:5000 dilution and incubated for 1 hour. The plate was washed 3× and TMB substrate was added to all the wells and incubated for ˜30 minutes. The color reaction was stopped with 2M H₂SO₄ and the absorbance reading was measured on a plate reader at […] (FIG. 8).

[4] = target: T3, biotinylated CCR2 loop 3 peptide (human, also: biotinylated, position not given here); test: peptide ELISA
T3 construct: Synthetic peptide (AnaSpec) captured on a NeutrAvidin plate; also called third loop
T3 peptide: QEFFGLSNCESTSQLDQ
Experimental: as §1

[5] = target: T3, biotinylated CCR2 loop 3 peptide; test: capture ELISA, biotinylated CCR2 loop 3 peptide on a NeutrAvidin plate, HRP anti-human IgG4, absorbance at 450 nm
Experimental: as §1

human CCR2 [6] = target: T1, human CCR2; test: FACS saturation binding, 3 hour assay, 300-19 cells expressing human CCR2; full-length human CCR2 on transfected 300-19 cells, not the chimera; KD in ug/mL
Experimental: (§2) Briefly, using a buffer of Dulbecco's Phosphate Buffered Saline containing 2% heat inactivated Fetal Bovine Serum, 0.002% Sodium Azide and 0.005 mg/ml Cytochalasin-B (Sigma 6762), 1 million cells in a volume of 100 ul were stained with the test antibody. Fifteen minutes later, a secondary detection antibody, R-Phycoerythrin conjugated Affini-pure F(ab′) fragment Donkey anti-human IgG H+L (Jackson 709-116-149), was added. Tubes were gently shaken for 3 hours at room temperature. After 2 washes in buffer, cells were resuspended in 500 ul of buffer and assessed on a FACS CALIBUR™. A total of 10,000 events per tube were assessed. The mean channel fluorescent intensity was assessed for each concentration of antibody as an indicator for the magnitude of staining.

[7] = target: T4, RMMR chimeric receptor (N-terminus and 3rd loop of CCR1; 1st and 2nd loops of CCR2), FLAG-tagged; test: FACS saturation binding on 300-19 cells expressing the chimera with the first and second extracellular loops of CCR2 (FIG. 6C)
T4 construct: also called 1st and 2nd loops of CCR2 (RMMR)
Experimental: as §2, with “Fifteen” for “Briefly, using a buffer of Dulbecco's Phosphate Buffered Saline containing 2% heat inactivated Fetal Bovine Serum, 0.002% Sodium Azide and 0.005 mg/ml Cytochalasin-B (Sigma 6762), 1 million cells in a volume of 100 ul were stained with the test antibody. Fifteen”
(§3) Binding of antibodies to the CCR2/CCR1 chimeric receptors was assessed using FACS analysis. All receptors were tagged at the N-terminus with FLAG and also stained with the anti-FLAG antibody M1 such that receptor expression could be confirmed. FIGS. 6A & B illustrate the FACS staining of FLAG on the N-terminus with M1 antibody (FIG. 6A) as compared to the staining of 4.40 (FIG. 6B). FIG. 6C illustrates a saturation binding curve of the 4.40 A68G S230P antibody on RMMR chimera transfected 300-19 cells.

[8] = target: T2, biotinylated CCR2 loop 2 peptide; test: capture ELISA, biotinylated CCR2 loop 2 peptide on a NeutrAvidin plate, HRP anti-human IgG4, absorbance at 450 nm
Experimental: as §1

human CCR2 [9] = target: T1, human CCR2; test: FACS saturation binding (3 hour assay) on CCR2 transfected 300-19 cells, PE anti-human IgG detection
Experimental: as §2

CCR5 = target: T5, CCR5 (human, UniProt P51681 1-352); test: FACS, AF-488 conjugated antibody on 300-19 cells expressing recombinant CCR5
T5 construct: also called recombinant CCR5; human CCR5
Experimental: The selectivity of the 4.40 A68G S230P antibody for human CCR2 was confirmed by the absence of binding to a closely related chemokine receptor, CCR5, as shown in FIG. 9 and by the lack of inhibition of chemotaxis induced by the CCR5/CCR1 ligand MIP-1a (FIG. 3). […] For these studies, 300.19 cells engineered to express CCR5 were incubated with either the CCR2 selective antibody, 4.40 A68G S230P, or the CCR5-selective antibody for 30 minutes. Cells were then washed in FACS buffer (0.02% sodium azide, 2% heat inactivated fetal bovine serum in PBS) and analyzed for cell surface expression using a flow cytometer using standard methods.

[10] = target: T4, RMMR chimeric receptor (N-terminus and …); test: FACS saturation binding on RMMR chimera transfected 300-19 cells
Experimental: as §2, with “Fifteen” for “Briefly, using a buffer of Dulbecco's Phosphate Buffered Saline containing 2% heat inactivated Fetal Bovine Serum, 0.002% Sodium Azide and 0.005 mg/ml Cytochalasin-B (Sigma 6762), 1 million cells in a volume of 100 ul were stained with the test antibody. Fifteen”
as §3

cynomolgus monkey CCR2 = cynomolgus monkey CCR2 (cynomolgus monkey); test: cell-based or functional assay
human CCR2 [11] = target: T1, human CCR2; test: cell-based or functional assay; remark: listed apart in the source

T5 sequence (P51681 whole entry): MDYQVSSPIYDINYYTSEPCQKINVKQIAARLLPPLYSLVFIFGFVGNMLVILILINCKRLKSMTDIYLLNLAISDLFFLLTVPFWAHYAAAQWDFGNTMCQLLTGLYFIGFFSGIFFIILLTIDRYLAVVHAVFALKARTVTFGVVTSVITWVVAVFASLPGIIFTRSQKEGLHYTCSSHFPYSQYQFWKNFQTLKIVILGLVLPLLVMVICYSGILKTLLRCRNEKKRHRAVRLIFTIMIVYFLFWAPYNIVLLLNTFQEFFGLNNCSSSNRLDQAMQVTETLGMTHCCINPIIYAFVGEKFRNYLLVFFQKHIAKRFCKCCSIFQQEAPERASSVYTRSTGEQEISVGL

B1: anti-CCR2 monoclonal antibody 4.40 (antibody, V domains shown)
VH: QVQLVESGGGVVQPGRSLRLSCAASGLTFSSYGMHWVRQAPGKGLEWVAVILYDGKNKYYADSVKGRFTISRDNSKNTLYLQMNSLRAEDTAVYYCARDQAYWTYFDAFDIWGQGTMVTVSS
VL: EIVLTQSPDFQSVTPKEKVTITCRASQSIGSSLHWYQQKPDQSPKLLIKYASQSFSGVPSRFSGSGSATDFTLTINSLEAEDAATYYCHQSSSLPLTFGGGTKVEIKR
notes: Hybridoma clone from IgG4 XenoMouse mice; Variable domains were also cloned into IgG1, IgG2 and IgG4 formats; also called 4.40.2; 4.40.3
Chemotaxis IC50 (human CCR2 [1]): 0.13 µg/mL
Inhibition of MCP-1-induced THP-1 Chemotaxis, IC50 (human CCR2 [2]): 0.137 µg/mL
binding result [3]: binds
binding result [4]: no binding

B2: anti-CCR2 antibody 4.40 A68G S230P (antibody, human IgG4 S228P, kappa, V domains shown)
VH: B1 VH
VL: B1 VL with A68G
notes: Recombinant human IgG4 with the hinge mutation S230P (heavy chain) and the germline reversion A68G (light chain) of 4.40; also called 4.40.3 A68G S230P; 4.40.2 A68G S230P
binding result [5]: no binding (tested: about 6 ug/ml)
Kd (human CCR2 [6]): 0.085 µg/mL
Kd [7]: 0.023 µg/mL and 0.16 nM
binding result [8]: binds
EC50 (read off the curve) (human CCR2 [9]): ~0.08 µg/mL
Kd (human CCR2 [9]): 0.0849 µg/mL
binding result (CCR5): no binding
EC50 (read off the curve) [10]: ~0.05 µg/mL
Kd [10]: 0.0226 µg/mL
inhibition of MCP-1 induced whole blood actin polymerization in the cynomolgus monkey, IC50 (cynomolgus monkey CCR2): 0.49 µg/mL
inhibition of MCP-1 induced actin polymerization in monocytes, human whole blood, IC50 (human CCR2 [11]): 0.168 µg/mL
inhibition of MCP-1 induced pERK phosphorylation in human whole blood, IC50 (human CCR2 [11]): 0.44 µg/mL and 2.9 nM
inhibition of chemotaxis of THP-1 monocytes in response to MCP-1, IC50 (human CCR2 [11]): 0.148 µg/mL
inhibition of collagen IAI mRNA synthesis in LI90 cells induced by MCP-1, IC50 (human CCR2 [11]): 0.89 µg/mL and 6.2 nM

B3: anti-CCR2 monoclonal antibody 4.9 (antibody, human IgG4, kappa, V domains shown)
VH: B1 VH with L27F, I51Q, L52T, K56R, N77K, S85R, T104K
VL: DIQMTQSPSSLSTSVGDRVTITCRASQSISSYLNWYQQKPGKAPKLLIYAASSLQSGVPSRFSGSGSGTDFTLTISSLQPEDFATYYCQQSYNSPCSFGQGTKLEIKR
notes: Hybridoma clone from IgG4 XenoMouse mice; also called 4.9.2; 4.9.3
Chemotaxis IC50 (human CCR2 [1]): 0.198 µg/mL
Inhibition of MCP-1-induced THP-1 Chemotaxis, IC50 (human CCR2 [2]): 0.198 µg/mL
binding result [3]: binds
binding result [4]: no binding

B4: anti-CCR2 monoclonal antibody 4.39.3 (antibody, human IgG4, kappa, V domains shown)
VH: QVQLVQSGAEVKKPGASVKVSCKASGYTFTSYYIHWVRQAPGQGLEWMGMINPSGGPTSYAQKFQGRVTMTRDTSTSTVYMDLSSLRSEDTAVFYCARERWYKWNFDAFDIWGQGTMVTVSS
VL: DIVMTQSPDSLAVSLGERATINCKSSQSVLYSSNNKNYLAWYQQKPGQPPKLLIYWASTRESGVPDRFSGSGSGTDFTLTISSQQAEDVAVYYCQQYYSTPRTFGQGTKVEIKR
Chemotaxis IC50 (human CCR2 [1]): 0.139 µg/mL
Inhibition of MCP-1-induced THP-1 Chemotaxis, IC50 (human CCR2 [2]): 0.139 µg/mL
